Reference: patent CN107042091A

Legend:
Myc-GST融合蛋白 [1] = experiment: ELISA, Myc-GST coated at 5 μg/mL, HRP anti-His second antibody, heat test at 90℃ for 30 min
Myc-GST融合蛋白 [2] = experiment: ELISA, Myc-GST coated at 5 μg/mL, HRP anti-His second antibody, heat test at 70℃ for 30 min
Myc-GST融合蛋白 [3] = experiment: ELISA, Myc-GST coated at 5 μg/mL, HRP anti-His second antibody, heat test at 80℃ for 30 min

B1: 抗c-Myc标签单域重链抗体 (VHH, not shown: small tags and cut ends)
VHH: QLQLVESGGGEVHPGGSLTLSCEVSGINPAYYAIGWFHQSPGKEREGVACISQGGAKTNYADSVKGRFTISRDSAKNTVYLHMNSLQSEDTGSYYCARRRGAYCTESNSAGDYASWGQGTQVTVST
OD450 (Myc-GST融合蛋白 [1]): 1.1 | OD450 (Myc-GST融合蛋白 [2]): 1.4 | OD450 (Myc-GST融合蛋白 [3]): 1.3
